Reference: patent publication US20220339270A1

How the values were obtained:
[1] = target: Phospho_Tau441 (Tau441 phosphorylated in vitro by DYRK1A) (human), P10636; assay: ELISA, PT3 immobilized, tau protein applied at 333 ng/mL; conditions: remark: other sources report otherwise
[2] = target: Tau441 (recombinant, not phosphorylated) (human), P10636; assay: as above; conditions: remark: other sources report otherwise
Tau441 (recombinant, not phosphorylated) (human), P10636, sequence (P10636 other isoform, or with tags, fused parts or gaps limits assumed): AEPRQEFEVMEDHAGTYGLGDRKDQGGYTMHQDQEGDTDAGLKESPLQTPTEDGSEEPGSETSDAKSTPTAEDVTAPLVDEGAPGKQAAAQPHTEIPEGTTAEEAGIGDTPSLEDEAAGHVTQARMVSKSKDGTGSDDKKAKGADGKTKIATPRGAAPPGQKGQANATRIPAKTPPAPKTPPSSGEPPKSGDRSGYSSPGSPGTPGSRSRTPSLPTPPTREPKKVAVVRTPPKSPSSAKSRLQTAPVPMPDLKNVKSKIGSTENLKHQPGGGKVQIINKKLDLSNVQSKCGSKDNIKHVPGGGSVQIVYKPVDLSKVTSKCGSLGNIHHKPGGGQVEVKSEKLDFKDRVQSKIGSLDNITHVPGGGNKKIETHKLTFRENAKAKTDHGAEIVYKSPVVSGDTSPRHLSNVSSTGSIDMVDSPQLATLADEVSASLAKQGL

Phospho_Tau441 (Tau441 phosphorylated in vitro by DYRK1A) (human), P10636, sequence (P10636 other isoform, or with tags, fused parts or gaps limits assumed): as above

OD450-570 [1]: 0.5 | OD450-570 [2]: 0
B1: anti-tau antibody PT3 (antibody, V domains shown)
VH: EVKLVESGGDLVKPGGSLKLSCAASGFTFSSYAMSWVRQNPEKRLEWVASISKGGNTYYPNSVKGRFTISRDNARNILYLQMSSLRSEDTALYYCARGWGDYGWFAYWGQVTLVTVSA
VL: DIKMTQSPSSMYASLGERVTITCKASQDINRYLNWFQQKPGKSPKTLIYRANRLLDGVPSRFSGSGSGQDYSLTISSLDYEDMGIYYCLQYDEFPLTFGDGTKLELK
